B1: PRO462 (bispecific antibody, part only; not given: second specificity domains and linkers, V domains shown, not shown: another chain or arm of the molecule)
VL: DIQMTQSPSSLSASVGDRVTITCQSSESVYSNNQLSWYQQKPGQPPKLLIYDASDLASGVPSRFSGSGSGTDFTLTISSLQPEDFATYYCAGGFSSSSDTAFGGGTKLTVLG
VH: EVQLVESGGGLVQPGGSLRLSCAASGFSLSSNAMGWVRQAPGKGLEYIGIISVGGFTYYASWAKGRFTISRDNSKNTVYLQMNSLRAEDTATYFCARDRHGGDSSGAFYLWGQGTLVTVSS
B2: PRO480 (bispecific antibody, part only; not given: second specificity domains and linkers, V domains shown, not shown: another chain or arm of the molecule)
VL: DVVMTQSPSSLSASVGDRVTITCQASQIISSRSAWYQQKPGQPPKLLIYQASKLASGVPSRFSGSGSGTDFTLTISSLQPEDFATYYCQCTYIDSNFGAFGGGTKLTVLG
VH: EVQLVESGGGLVQPGGSLRLSCAASGFSFSSSYWICWVRQAPGKGLEWVGCVFTGDGTTYYASWAKGRFTISRDNSKNTVYLQMNSLRAEDTATYFCARPVSVYYYGMDLWGQGTLVTVSS

Key:
[1] = biological target: human serum albumin (human) (UniProt P02768); assay: SPR, scDb, pH 5.5
[2] = biological target: cynomolgus serum albumin (cynomolgus) (UniProt A2V9Z4); assay: SPR, scDb, pH 5.5
[3] = biological target: human serum albumin (human) (UniProt P02768); assay: SPR, scDb, pH 7.4
[4] = biological target: cynomolgus serum albumin (cynomolgus) (UniProt A2V9Z4); assay: SPR, scDb, pH 7.4

| Binder | Kd [1] | koff [1] | kon [1] | Kd [2] | koff [2] | kon [2] | Kd [3] | koff [3] | kon [3] | koff [4] | kon [4] |
| --- | --- | --- | --- | --- | --- | --- | --- | --- | --- | --- | --- |
| B1 | 0.371 nM | 0.000333 s⁻¹ | 897000 M⁻¹ s⁻¹ | 0.175 nM | 0.000175 s⁻¹ | 1e+06 M⁻¹ s⁻¹ | 0.728 nM | 0.000345 s⁻¹ | 474000 M⁻¹ s⁻¹ | 0.000221 s⁻¹ | 630000 M⁻¹ s⁻¹ |
| B2 | 2.3 nM | 0.000173 s⁻¹ | 75000 M⁻¹ s⁻¹ | 4.82 nM | 0.000373 s⁻¹ | 77600 M⁻¹ s⁻¹ | 3.36 nM | 0.000235 s⁻¹ | 70100 M⁻¹ s⁻¹ | 0.000549 s⁻¹ | 57000 M⁻¹ s⁻¹ |

Reference: patent publication US20200325214A1
